Tested on: peptide library, one residue held at a place counted from the S/T acceptor
Assay: relative phosphorylation of the sub-library (ratio to the mean residue at this position); higher = residue favoured
Method in brief: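 In 384-well plates, purified recombinant kinases (human or orthologue constructs) were incubated for 90 min under kinase-specific conditions with 50 μM biotinylated degenerate peptide sub-libraries and 50 μM ATP spiked with γ-32P-ATP. Each sub-library fixed a single residue at one position around a central Ser/Thr. Relative sub-library phosphorylation, measured by phosphorimaging and densitometry of streptavidin membrane spots, is given as a ratio to the mean residue at that position.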

Chain of MAP3K7, construct: aa1-303, human (O43318 1-303, looked up): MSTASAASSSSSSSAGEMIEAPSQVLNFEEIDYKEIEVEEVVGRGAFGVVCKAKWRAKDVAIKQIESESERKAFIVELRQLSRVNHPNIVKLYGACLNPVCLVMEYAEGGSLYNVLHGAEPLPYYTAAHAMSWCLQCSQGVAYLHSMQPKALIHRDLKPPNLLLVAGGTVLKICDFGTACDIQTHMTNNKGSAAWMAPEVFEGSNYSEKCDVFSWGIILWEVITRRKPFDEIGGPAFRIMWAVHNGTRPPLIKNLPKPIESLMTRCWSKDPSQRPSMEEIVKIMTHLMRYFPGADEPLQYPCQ
Chain of MAPK7, construct: aa1-405, human (Q13164 1-405, looked up): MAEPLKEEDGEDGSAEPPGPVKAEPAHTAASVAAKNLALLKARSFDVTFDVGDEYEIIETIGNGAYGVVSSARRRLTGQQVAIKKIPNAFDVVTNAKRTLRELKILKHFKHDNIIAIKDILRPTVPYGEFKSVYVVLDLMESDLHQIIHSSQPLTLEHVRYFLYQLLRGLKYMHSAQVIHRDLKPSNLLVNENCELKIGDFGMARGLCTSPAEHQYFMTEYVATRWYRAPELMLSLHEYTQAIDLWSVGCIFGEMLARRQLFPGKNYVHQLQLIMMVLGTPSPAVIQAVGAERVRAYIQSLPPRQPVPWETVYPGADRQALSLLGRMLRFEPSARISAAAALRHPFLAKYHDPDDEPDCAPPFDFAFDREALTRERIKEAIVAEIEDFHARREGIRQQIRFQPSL
Chain of MAP3K11, construct: aa99-398, human (Q16584 99-398, looked up): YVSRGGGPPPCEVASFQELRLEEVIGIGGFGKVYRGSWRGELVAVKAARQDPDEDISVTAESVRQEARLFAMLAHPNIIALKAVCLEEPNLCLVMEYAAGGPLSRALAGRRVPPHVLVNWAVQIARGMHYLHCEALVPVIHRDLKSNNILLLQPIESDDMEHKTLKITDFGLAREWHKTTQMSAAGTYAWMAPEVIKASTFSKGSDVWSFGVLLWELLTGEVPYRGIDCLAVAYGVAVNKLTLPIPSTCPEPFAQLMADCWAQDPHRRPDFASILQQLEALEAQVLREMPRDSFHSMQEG
Chain of MAP3K21, construct: aa98-451, human (Q5TCX8 98-451, looked up): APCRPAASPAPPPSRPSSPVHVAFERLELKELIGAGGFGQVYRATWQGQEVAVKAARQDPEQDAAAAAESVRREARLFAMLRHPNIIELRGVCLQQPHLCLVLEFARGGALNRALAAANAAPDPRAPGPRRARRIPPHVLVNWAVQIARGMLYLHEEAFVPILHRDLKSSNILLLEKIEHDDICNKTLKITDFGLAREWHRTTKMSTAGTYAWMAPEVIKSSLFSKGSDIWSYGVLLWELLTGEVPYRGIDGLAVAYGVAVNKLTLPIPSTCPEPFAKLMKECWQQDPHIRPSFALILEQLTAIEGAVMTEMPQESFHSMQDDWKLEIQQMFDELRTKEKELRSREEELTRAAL

MAP3K7, construct: aa1-303, human (from UniProt O43318)
relative phosphorylation
Settings | at +1 | at +2 | at +3 | at +4 | at -1 | at -2 | at -3 | at -4 | at -5
A fixed | 0.455 | 0.709 | 0.902 | 0.855 | 0.708 | 0.979 | 1.18 | 0.95 | 1.05
D fixed | 0.391 | 1.03 | 0.996 | 0.885 | 1.18 | 0.533 | 0.857 | 1.69 | 1.56
E fixed | 0.668 | 0.547 | 0.878 | 0.898 | 0.687 | 0.863 | 0.662 | 1.33 | 1.17
F fixed | 1.44 | 0.608 | 0.93 | 0.735 | 1.01 | 1.14 | 0.818 | 0.938 | 0.891
G fixed | 0.565 | 0.809 | 1.39 | 1.18 | 0.528 | 0.592 | 0.714 | 1.14 | 1.04
H fixed | 0.914 | 1.42 | 1.1 | 1.11 | 1.23 | 1.42 | 1.1 | 1.05 | 1.07
I fixed | 1.41 | 0.623 | 0.714 | 0.921 | 0.888 | 1.2 | 1.14 | 0.872 | 0.781
K fixed | 0.409 | 2.3 | 1.33 | 1.42 | 0.752 | 0.581 | 0.752 | 0.734 | 0.885
L fixed | 2 | 0.608 | 0.821 | 0.949 | 1.57 | 1.01 | 1.13 | 0.834 | 0.77
M fixed | 1.55 | 0.786 | 0.968 | 0.897 | 1.41 | 1.31 | 0.999 | 0.9 | 0.884
N fixed | 2.36 | 1.44 | 1.07 | 0.959 | 1.13 | 0.633 | 0.649 | 0.962 | 0.987
P fixed | 0.206 | 0.741 | 0.892 | 1.29 | 0.348 | 0.537 | 0.854 | 0.807 | 1.06
Q fixed | 1.17 | 0.78 | 0.93 | 0.993 | 0.866 | 0.785 | 0.65 | 0.818 | 0.818
R fixed | 0.597 | 2.39 | 1.33 | 1.29 | 1.02 | 1 | 1.54 | 0.795 | 0.994
V fixed | 0.914 | 0.758 | 0.874 | 0.836 | 0.768 | 1.07 | 1 | 0.934 | 0.894
W fixed | 0.963 | 0.646 | 0.969 | 0.923 | 1.2 | 1.31 | 1.37 | 1.14 | 1.07
Y fixed | 0.979 | 0.804 | 0.903 | 0.866 | 1.7 | 2.04 | 1.58 | 1.11 | 1.08
pThr fixed | 0.898 | 1.36 | 1.33 | 0.99 | 1.03 | 1.41 | 1.53 | 1.4 | 1.14
pTyr fixed | 0.431 | 0.475 | 0.716 | 0.689 | 1.07 | 1.01 | 0.786 | 0.912 | 1.09

MAP3K11, construct: aa99-398, human (from UniProt Q16584)
relative phosphorylation
Settings | at +1 | at +2 | at +3 | at +4 | at -1 | at -2 | at -3 | at -4 | at -5
A fixed | 0.654 | 0.524 | 0.71 | 0.779 | 0.713 | 0.983 | 1.06 | 1.02 | 1.21
D fixed | 0.261 | 0.298 | 0.538 | 0.592 | 1.06 | 1.07 | 1.34 | 1.66 | 1.78
E fixed | 0.424 | 0.285 | 0.445 | 0.549 | 0.891 | 0.89 | 1.35 | 1.46 | 1.24
F fixed | 1.15 | 0.42 | 1.21 | 0.746 | 0.792 | 1.12 | 0.841 | 0.799 | 0.716
G fixed | 0.664 | 0.458 | 1.1 | 1.03 | 0.453 | 1.06 | 1.36 | 1.34 | 1.39
H fixed | 1.36 | 1.53 | 1.17 | 1.07 | 1.52 | 0.919 | 1.24 | 1.03 | 1.14
I fixed | 0.625 | 0.392 | 0.562 | 0.605 | 0.522 | 0.769 | 0.428 | 0.529 | 0.508
K fixed | 1.79 | 3.9 | 2.18 | 3.13 | 1.3 | 0.55 | 0.933 | 0.901 | 1.2
L fixed | 0.71 | 0.407 | 1 | 0.589 | 0.946 | 0.738 | 0.654 | 0.722 | 0.781
M fixed | 1.35 | 0.49 | 0.743 | 0.656 | 1.28 | 1.16 | 0.835 | 0.749 | 0.634
N fixed | 0.699 | 0.666 | 0.971 | 0.834 | 1.16 | 0.949 | 1.1 | 0.947 | 0.996
P fixed | 0.268 | 0.352 | 0.641 | 1.58 | 0.914 | 2.31 | 1.64 | 1.63 | 1.4
Q fixed | 1.33 | 0.705 | 0.753 | 0.876 | 0.901 | 0.679 | 0.948 | 0.89 | 0.865
R fixed | 2.38 | 4.19 | 1.9 | 2.01 | 1.38 | 0.678 | 0.898 | 0.918 | 0.993
V fixed | 0.903 | 0.367 | 0.756 | 0.647 | 0.771 | 0.779 | 0.581 | 0.559 | 0.903
W fixed | 1.29 | 0.729 | 1.16 | 0.527 | 0.928 | 1.16 | 0.754 | 0.924 | 0.522
Y fixed | 1.14 | 1.29 | 1.17 | 0.784 | 1.48 | 1.18 | 1.04 | 0.92 | 0.711
pThr fixed | 0.895 | 0.476 | 0.69 | 0.685 | 0.686 | 1.02 | 1.18 | 1.38 | 1.21
pTyr fixed | 0.498 | 0.528 | 0.608 | 0.454 | 1.08 | 0.972 | 1.27 | 1.06 | 1.08

MAP3K21, construct: aa98-451, human (from UniProt Q5TCX8)
relative phosphorylation
Settings | at +1 | at +2 | at +3 | at +4 | at -1 | at -2 | at -3 | at -4 | at -5
A fixed | 0.66 | 0.456 | 0.721 | 0.893 | 0.777 | 0.912 | 0.933 | 1.05 | 1.07
D fixed | 0.244 | 0.223 | 0.462 | 0.682 | 1.23 | 1.55 | 1.72 | 1.84 | 1.8
E fixed | 0.435 | 0.323 | 0.508 | 0.676 | 0.821 | 1.43 | 1.97 | 1.81 | 1.63
F fixed | 1.52 | 0.38 | 1.08 | 0.633 | 0.875 | 1.02 | 0.789 | 0.676 | 0.82
G fixed | 0.585 | 0.397 | 0.796 | 1.11 | 0.386 | 0.992 | 1.17 | 1.37 | 1.24
H fixed | 1.21 | 2.1 | 1.61 | 1.16 | 1.46 | 1.19 | 1.19 | 1.12 | 1.06
I fixed | 1.28 | 0.502 | 0.71 | 0.622 | 0.534 | 0.537 | 0.406 | 0.49 | 0.485
K fixed | 1.25 | 2.23 | 1.52 | 2.18 | 1.03 | 0.356 | 0.702 | 0.83 | 1.03
L fixed | 0.726 | 0.507 | 1.14 | 0.58 | 0.711 | 0.699 | 0.545 | 0.513 | 0.609
M fixed | 1.61 | 0.467 | 0.881 | 0.722 | 0.914 | 1.04 | 0.806 | 0.818 | 0.654
N fixed | 0.62 | 0.624 | 0.829 | 0.871 | 1.43 | 1.18 | 1.22 | 1.16 | 1.01
P fixed | 0.185 | 0.18 | 0.398 | 1.46 | 0.679 | 1.85 | 1.19 | 1.19 | 1.08
Q fixed | 1.16 | 0.88 | 0.849 | 1.16 | 1.02 | 1.05 | 1.16 | 0.968 | 0.99
R fixed | 1.92 | 3.75 | 1.87 | 2.13 | 1.4 | 0.593 | 0.817 | 0.902 | 1.13
V fixed | 1.98 | 0.426 | 0.81 | 0.753 | 0.875 | 0.52 | 0.496 | 0.595 | 0.682
W fixed | 0.707 | 1.91 | 1.41 | 0.702 | 1.19 | 0.909 | 0.872 | 0.886 | 0.825
Y fixed | 0.907 | 1.65 | 1.41 | 0.661 | 1.67 | 1.18 | 1.02 | 0.779 | 0.886
pThr fixed | 1.13 | 0.418 | 0.664 | 0.851 | 0.803 | 1.09 | 1.84 | 1.28 | 1.35
pTyr fixed | 0.604 | 0.427 | 0.692 | 0.519 | 1.83 | 1.01 | 1.17 | 1.11 | 1.22

MAPK7, construct: aa1-405, human (from UniProt Q13164)
relative phosphorylation
Settings | at +1 | at +2 | at +3 | at +4 | at -1 | at -2 | at -3 | at -4 | at -5
A fixed | 5.25 | 0.808 | 0.997 | 0.943 | 0.957 | 0.867 | 1.2 | 1.21 | 1.14
D fixed | 0.374 | 0.579 | 0.866 | 1.2 | 0.745 | 0.491 | 0.862 | 1.11 | 0.83
E fixed | 0.338 | 0.519 | 0.827 | 0.951 | 0.646 | 0.484 | 0.872 | 1.12 | 0.81
F fixed | 0.47 | 0.908 | 0.941 | 0.922 | 0.956 | 0.658 | 0.778 | 0.919 | 1.03
G fixed | 1.67 | 1 | 1.14 | 1.08 | 0.808 | 0.666 | 1.08 | 1.09 | 0.977
H fixed | 0.466 | 0.917 | 0.886 | 1.05 | 1.28 | 0.568 | 0.822 | 0.913 | 1.07
I fixed | 0.372 | 1.08 | 1.45 | 0.998 | 0.684 | 1.43 | 0.988 | 0.891 | 1.02
K fixed | 0.449 | 1.24 | 0.59 | 0.947 | 0.834 | 0.797 | 0.827 | 0.943 | 0.988
L fixed | 0.54 | 1.02 | 1.27 | 0.918 | 1.61 | 2.64 | 1.07 | 0.938 | 1.06
M fixed | 0.523 | 1.08 | 1.12 | 0.993 | 1.66 | 1.91 | 1.13 | 0.976 | 0.986
N fixed | 0.464 | 0.963 | 0.789 | 0.8 | 0.948 | 0.61 | 1.06 | 0.954 | 1
P fixed | 3.79 | 0.758 | 1.13 | 1.04 | 1.13 | 2.1 | 1.87 | 1.16 | 1.03
Q fixed | 0.438 | 0.927 | 0.818 | 1.07 | 1.02 | 0.928 | 0.926 | 0.941 | 0.867
R fixed | 0.471 | 2 | 0.794 | 0.939 | 0.983 | 0.695 | 1.04 | 0.894 | 1.11
V fixed | 0.426 | 1.16 | 1.08 | 0.975 | 0.69 | 0.986 | 0.96 | 0.982 | 1.01
W fixed | 0.534 | 1.1 | 1.2 | 1.21 | 0.844 | 0.631 | 0.791 | 1.03 | 0.892
Y fixed | 0.429 | 0.945 | 1.1 | 0.97 | 1.2 | 0.533 | 0.737 | 0.931 | 1.18
pThr fixed | 0.632 | 0.779 | 0.702 | 0.863 | 0.541 | 0.976 | 0.946 | 1.07 | 0.901
pTyr fixed | 0.518 | 0.587 | 0.989 | 0.835 | 0.945 | 0.815 | 1.02 | 1.11 | 1.04

— the supplement of paper PMC9876800
